Measurements from US20110245153A1.

Molecular target: Staphylococcal enterotoxin B (Staphylococcus aureus) (UniProt P01552)
Sequence of UniProt P01552 (P01552 28-266 limits assumed): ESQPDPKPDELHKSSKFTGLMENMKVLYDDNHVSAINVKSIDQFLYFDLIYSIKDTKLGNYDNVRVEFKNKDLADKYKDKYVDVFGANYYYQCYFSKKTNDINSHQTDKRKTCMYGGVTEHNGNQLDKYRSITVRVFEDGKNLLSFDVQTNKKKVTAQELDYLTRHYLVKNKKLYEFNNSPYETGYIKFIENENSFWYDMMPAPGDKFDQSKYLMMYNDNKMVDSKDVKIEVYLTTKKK

For Vβ8 CDR2 mutant EGIGYITK (TCR), which Kd is on record?
Its Kd is 5 nM.
